In patent US8192734B2, “Compositions and methods for bone strengthening” (Cornell University, priority 2007, dated 2012):

Key:
Assay type in all cases: in vivo, pig
[1] = test system: weanling pigs fed high P diet; assay: Examples 4-8: femoral and metacarpal mechanical properties, dimensions, cortical thickness; details: 8 wk
Procedure: As in Examples 1-3, the animal protocol was approved by Cornell Animal Care and Use Committee. An 8-week feeding trial was conducted at Cornell University Swine Research Farm. […] Group 2 were fed a corn-soy basal diet (BD)+0.25% inorganic phosphorus (iP, dicalcium phosphate). Group 2 were fed BD+0.35% iP. […] The BD (Table 7) contained adequate levels of all nutrients except for P^(63), and 0.25% iP is the supplementation level recommended by NRC^(24) to meet the P needs of this age of pigs. […] Pigs were housed in an environmentally-controlled barn (20-25° C.; 12-light: 12-dark cycle), and given free access to feed and water.
Growth performance of pigs was monitored at two week intervals. Blood samples of all individual pigs (fasted overnight for 8 h) were collected at initial (week 0) and then bi-weekly from the anterior vena cava using 5-mL heparin syringes to assay for concentrations of plasma iP^(73), Ca and Sr^(63). At the end of experiment, 5 pigs (2 male and 3 female) from each group were killed by electrical stunning and exsanguination. Both left and front right legs from each animal were removed from the body.
After the skin and major muscles were removed, two left legs were subjected to X-ray radiography using a Faxitron machine (Model 43855A; Hewlett Packard, McMinnville, Oreg., USA). Bone radiographs of femur and metacarpals were quantified by the kodac software. The software counted the total number of pixels. Thereafter, the 3rd and 4th metacarpals and femurs were collected to measure length, weight, height, and width after removing the remaining muscle and connective tissue. After the X-ray analysis, the two left legs were used for bone mechanical and mineral testing. Bone mechanical properties were determined by a three-point bending test (ASAE Standard S459 1992) using an Instron 4500 Machine Universal Testing Instrument (Model 1122, Instron, Canton, Mass.) with Instron Series IX Automated Materials Testing System Software (version 4.05). During testing, force was applied to the center of the bone held by supports 2.0 cm apart for metacarpals and 3.3 cm apart for femurs. The crosshead speed was set at 50 mm/min and the sampling rate was at 10 points/sec. The extrinsic parameters (stiffness/slope, maximum load, energy to break, maximum displacement) were derived from the force-displacement curve. Bone breaking strength was calculated with the adjustment of bone weight, and the average strength of the 3rd and 4th metacarpal was used as the metacarpal strength for each pig.
After the above mechanical tests, midshaft sections of both femur and metacarpus were cut and washed with de-ionized water. The cortical thickness of both bones was measured by slide caliper in the midshaft. Cortical and cancellous bones were separated for total ash and mineral analysis. A 3-cm long and 3-mm thick midshaft of femur and 1-cm long and 1.5-mm thick midshaft of metacarpus were used for cortical ash analysis. For cancellous bone, sponge-like bone from 3-cm below the growth plate of femur and 1.5-cm below the growth plate of metacarpus were collected. For ash analysis, bones were oven-dried at 110° C. for 24 h, and incinerated in a muffle furnace at 550° C. for 96 h. Concentrations of individual elements in the ash were measured using inductively coupled argon plasma spectrophotometer (ICAP 61E Trace Analyzer, Thermo Jarell Ash corporation, Franklin, Mass.)^(63), and were expressed on ash basis.

[2] = test system: pigs fed P-adequate corn-soybean meal basal diet; assay: Expt 2: BMC, BMD and bone area by dual energy X-ray absorptiometry
Procedure: In Experiment 2, bone mineral content (BMC, g) and bone mineral density (BMD, g/cm^2) of 3rd and 4th metatarsals from the left foot and femur from the left leg of each pig were measured. After being thawed to room temperature, entire bones were placed on a rice bag (to remove background effects) and scanned by dual energy X-ray absorptiometry using the GE Lunar Prodigy instrument (GE Lunar, Prodigy, Madison Wis.) in the small animal scan mode. Values of BMC and BMD were predicted by analysis of scans using Prodigy software (version 10.10.038).

[3] = test system: weanling pigs fed high P diet; assay: Examples 4-8: cortical and cancellous bone ash and mineral profile; details: 8 wk, 0.35% iP + Sr 50 mg/kg + phytase 3,400 U/kg
[4] = test system: pigs fed P-adequate corn-soybean meal basal diet; assay: Expt 1: metatarsal mineral concentrations (ICP)
[5] = 0.35% iP + Sr 50 mg/kg + phytase 3,400 U/kg, P<0.05
[6] = length x width by DXA, diets with phytase
[7] = main effect, phytase 2,000 U/kg or Sr 50 mg/kg

B1: Phytase: Escherichia coli AppA2 phytase (OptiPhos, JBS United, Inc.), added to diets at feed mixing; AppA2 is SEQ ID NO: 2 (protein, listed as Escherichia coli)
chain: MKAILIPFLSLLIPLTPQSAFAQSEPELKLESVVIVSRHGVRAPTKATQLMQDVTPDAWPTWPVKLGWLTPRGGELIAYLGHYQRQRLVADGLLAKKGCPQPGQVAIIADVDERTRKTGEAFAAGLAPDCAITVHTQADTSSPDPLFNPLKTGVCQLDNANVTDAILSRAGGSIADFTGHRQTAFRELERVLNFSQLNLCLNREKQDESCSLTQALPSELKVSADNVSLTGAVSLASMLTEIFLLQQAQGMPEPGWGRITDSHQWNTLLSLHNAQFYLLQRTPEVARSRATPLLDLIMAALTPHPPQKQAYGVTLPTSVLFIAGHDTNLANLGGALELNWTLPGQPDNTPPGGELVFERWRRLSDNSQWIQVSLVFQTLQQMRDKTPLSLNTPPGEVKLTLAGCEERNAQGMCSLAGFTQIVNEARIPACSL
- greater cortical bone thickness of femur vs 0.35% iP [1, 5]: 32%
- greater cortical bone thickness of metacarpus vs 0.35% iP [1, 5]: 7%
- greater energy to break of femur vs 0.35% iP [1, 5]: 26%
- greater energy to break of metacarpus vs 0.35% iP [1, 5]: 14%
- greater maximal load of femur vs 0.35% iP [1, 5]: 38%
- greater maximal load of metacarpus vs 0.35% iP [1, 5]: 20%
- greater stiffness of femur vs 0.35% iP [1, 5]: 12%
- greater stiffness of metacarpus vs 0.35% iP [1, 5]: 8%
- femoral Cross-sectional area ([1]; 0.35% iP + phytase 3400 U, n=5): 199.7 mm^2
- femoral Height ([1]; 0.35% iP + phytase 3400 U, n=5): 21.8 mm
- femoral Length ([1]; 0.35% iP + phytase 3400 U, n=5): 143.7 mm
- femoral Max. Displacement ([1]; 0.35% iP + phytase 3400 U, n=5): 4.9 mm
- femoral Weight ([1]; 0.35% iP + phytase 3400 U, n=5): 202.2 g
- femoral Width ([1]; 0.35% iP + phytase 3400 U, n=5): 23.3 mm
- metacarpal Height ([1]; 0.35% iP + phytase 3400 U, n=5): 14.8 mm
- metacarpal Length ([1]; 0.35% iP + phytase 3400 U, n=5): 60.5 mm
- metacarpal Max. Displacement ([1]; 0.35% iP + phytase 3400 U, n=5): 8.9 mm
- metacarpal Weight ([1]; 0.35% iP + phytase 3400 U, n=5): 19.2 g
- metacarpal Width ([1]; 0.35% iP + phytase 3400 U, n=5): 15.0 mm
- total bone area of femur [2, 6]: 45.8 ± 0.7 cm²
- total bone area of metatarsal [2, 6]: 9 ± 0.2 cm²
- increase of total bone area of femur ([2]; main effect, P<0.05): 5%
- increase of total bone area of metatarsal ([2]; main effect, P<0.05): 7%
- elevation of BMD of the two bones (metatarsal, femur) [2, 7]: 9 to 11%
- enhancement of BMC in both bones (metatarsal, femur) [2, 7]: 14 to 15%
- decrease of Ca concentration in cancellous bones, femur and metacarpus [3]: 11 to 19%
- total ash concentration of cortical bone, femurs [3]: not altered
- elevation of Sr concentration in cancellous bone, femur ([3]; P<0.002): 127 fold
- increase in Fe concentration of cancellous bone, metacarpus ([3]; P<0.05): 22%
- higher Sr concentration in metatarsals vs BD ([4]; BD + phytase 2,000 U/kg, 6 wk, P<0.05): 7%
- metatarsal Ca concentration ([4]; phytase 2000 U/kg, n=8): 217.3 g/kg
- metatarsal Cr concentration ([4]; phytase 2000 U/kg, n=8): 6.4 mg/kg
- metatarsal Fe concentration ([4]; phytase 2000 U/kg, n=8): 15.7 mg/kg
- metatarsal Mg concentration ([4]; phytase 2000 U/kg, n=8): 3.6 g/kg
- metatarsal Mn concentration ([4]; phytase 2000 U/kg, n=8): 1.1 mg/kg
- metatarsal Na concentration ([4]; phytase 2000 U/kg, n=8): 6.2 g/kg
- metatarsal P concentration ([4]; phytase 2000 U/kg, n=8): 109.2 g/kg
- metatarsal S concentration ([4]; phytase 2000 U/kg, n=8): 1.2 g/kg
- metatarsal Sr concentration ([4]; phytase 2000 U/kg, n=8): 62.8 mg/kg
- metatarsal Zn concentration ([4]; phytase 2000 U/kg, n=8): 176.1 mg/kg
